In this data set the target is T1, TgGRA1 (Toxoplasma gondii, UniProt P13403 25-190).
T1 sequence: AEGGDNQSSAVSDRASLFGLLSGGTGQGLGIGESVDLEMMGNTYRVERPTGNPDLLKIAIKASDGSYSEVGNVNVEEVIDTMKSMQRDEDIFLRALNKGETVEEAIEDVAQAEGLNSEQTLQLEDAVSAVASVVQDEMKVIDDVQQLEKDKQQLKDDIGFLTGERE
The experiment in a line: EMSA; 2 mg/mL protein. To be noted: protein: recombinant; tags: His; label: biotin (TdT labeling); four-way junction of 4 strands.

B1: 4H cruciform DNA (4H-a/4H-b/4H-c/4H-d) (structured_DNA)
DNA 1: AACAGTAGCTTATTCGAGCTCGCGCCCTATCACGACGACTA
DNA 2: GTAGTCGTCGTGATAGGTGCAGGGGTTATAGGG
DNA 3: CCCTATAACCCCTGCATTGAATTCCAGTCTGATAA
DNA 4: TTTATCAGACTGGAATTCAAGCGCGAGCTCGAATAAGCTACTGT
On to B1, for which the binding result is given as “no binding”.
